Patent US20200234789A1, “DESIGNED PROTEINS FOR LIGAND BINDING” (THE REGENTS OF THE UNIVERSITY OF CALIFORNIA, priority 2017, published 2020)

Assay: Porphyrin binding titration to determine KD (apo-PS1 titrated into (CF3)4PZn, absorbance at 423 nm)
Settings: water-insoluble porphyrin solubilized with 1% w/v octylglucopyranoside detergent; 100 mM NaCl, 50 mM NaPi, pH 7.5; read-out: dissociation constant of binding, KD
Method: FIGS. 3A-3D. Biophysical characterization of apo- and holo-PS1. FIG. 3A: Electronic absorption and emission spectra of (CF3)4PZn/PS1 holo-protein and (CF3)4PZn in toluene solvent. […] FIG. 3B: Determination of KD by apo-PS1 titration into a buffer solution (100 mM NaCl, 50 mM NaPi, pH 7.5) of (CF3)4PZn with 1% w/v octyl-b-D-glucopyranoside. […] FIG. 3C: Circular dichroism (CD) spectra of apo- and holo-PS1 in 50 mM NaPi, 100 mM NaCl, pH 7.5 as a function of temperature. The transitions appear reversible based on the fact that the spectra are identical after cooling to room temperature. Units are in molar residue ellipticity. […] FIG. 3D: Pump-probe transient absorption spectra of (CF3)4PZn bound in the interior of holo-PS1 at 21° C. and 100° C. […] Inset exemplifies identical transient dynamics (primarily intersystem crossing from S1 to T1) at ΔAbs.=482 nm (scaled). […]
2 μM of (CF3)4PZn was solubilized in a 1 mL solution of 50 mM NaPi, 100 mM NaCl, pH 7.5 buffer by inclusion of 1% w/v octyl-b-D-glucopyranoside. 2 μL of a 102 uM stock of apo-PS1 (0.2 μM aliquots) was titrated into the 1 mL solution containing the porphyrin, and an electronic absorption spectrum was measured until >2.5 equivalents of protein were added. Absorbance changes at 423 nm, due to His-Zn coordination-induced spectral shifts of the porphyrin, were fit to a single-site, protein-ligand binding model.

- Kd: 45 nM
B1: PS1: de novo designed porphyrin-binding four-helix bundle protein; designed sequence SEQ ID NO:1, expressed His-tag-cleaved sequence SEQ ID NO:2 (protein)
chain: SEFEKLRQTGDELVQAFQRLREIFDKGDDDSLEQVLEEIEELIQKHRQLFDNRQEAADTEAAKQGDQWVQLFQRFREAIDKGDKDSLEQLLEELEQALQKIRELAEKKN
